Experimental data from patent publication US6518016.

Molecular target: factor Xa-activated factor V(Q506) (UniProt P12259)
Chain of UniProt P12259 (P12259 29-737 R534Q, chain 1 of 2): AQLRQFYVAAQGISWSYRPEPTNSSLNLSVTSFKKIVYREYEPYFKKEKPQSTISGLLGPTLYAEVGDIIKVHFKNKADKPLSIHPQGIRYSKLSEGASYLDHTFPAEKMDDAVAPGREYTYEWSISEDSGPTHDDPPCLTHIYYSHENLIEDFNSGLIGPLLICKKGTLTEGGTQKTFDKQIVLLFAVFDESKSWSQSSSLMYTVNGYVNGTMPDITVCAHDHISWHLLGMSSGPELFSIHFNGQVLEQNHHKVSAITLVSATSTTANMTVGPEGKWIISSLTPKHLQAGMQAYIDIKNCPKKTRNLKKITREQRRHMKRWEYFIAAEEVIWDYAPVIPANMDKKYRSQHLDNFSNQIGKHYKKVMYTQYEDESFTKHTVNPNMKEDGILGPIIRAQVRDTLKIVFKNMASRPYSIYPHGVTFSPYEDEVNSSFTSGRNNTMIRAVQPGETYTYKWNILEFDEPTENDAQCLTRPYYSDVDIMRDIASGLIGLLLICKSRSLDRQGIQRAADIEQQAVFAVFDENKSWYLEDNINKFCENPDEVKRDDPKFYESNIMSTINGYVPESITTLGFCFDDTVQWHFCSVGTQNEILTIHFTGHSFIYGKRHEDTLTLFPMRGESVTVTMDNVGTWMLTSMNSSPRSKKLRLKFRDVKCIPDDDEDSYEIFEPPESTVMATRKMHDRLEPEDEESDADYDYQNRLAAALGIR
Chain of UniProt P12259 (P12259 1047-2224, chain 2 of 2): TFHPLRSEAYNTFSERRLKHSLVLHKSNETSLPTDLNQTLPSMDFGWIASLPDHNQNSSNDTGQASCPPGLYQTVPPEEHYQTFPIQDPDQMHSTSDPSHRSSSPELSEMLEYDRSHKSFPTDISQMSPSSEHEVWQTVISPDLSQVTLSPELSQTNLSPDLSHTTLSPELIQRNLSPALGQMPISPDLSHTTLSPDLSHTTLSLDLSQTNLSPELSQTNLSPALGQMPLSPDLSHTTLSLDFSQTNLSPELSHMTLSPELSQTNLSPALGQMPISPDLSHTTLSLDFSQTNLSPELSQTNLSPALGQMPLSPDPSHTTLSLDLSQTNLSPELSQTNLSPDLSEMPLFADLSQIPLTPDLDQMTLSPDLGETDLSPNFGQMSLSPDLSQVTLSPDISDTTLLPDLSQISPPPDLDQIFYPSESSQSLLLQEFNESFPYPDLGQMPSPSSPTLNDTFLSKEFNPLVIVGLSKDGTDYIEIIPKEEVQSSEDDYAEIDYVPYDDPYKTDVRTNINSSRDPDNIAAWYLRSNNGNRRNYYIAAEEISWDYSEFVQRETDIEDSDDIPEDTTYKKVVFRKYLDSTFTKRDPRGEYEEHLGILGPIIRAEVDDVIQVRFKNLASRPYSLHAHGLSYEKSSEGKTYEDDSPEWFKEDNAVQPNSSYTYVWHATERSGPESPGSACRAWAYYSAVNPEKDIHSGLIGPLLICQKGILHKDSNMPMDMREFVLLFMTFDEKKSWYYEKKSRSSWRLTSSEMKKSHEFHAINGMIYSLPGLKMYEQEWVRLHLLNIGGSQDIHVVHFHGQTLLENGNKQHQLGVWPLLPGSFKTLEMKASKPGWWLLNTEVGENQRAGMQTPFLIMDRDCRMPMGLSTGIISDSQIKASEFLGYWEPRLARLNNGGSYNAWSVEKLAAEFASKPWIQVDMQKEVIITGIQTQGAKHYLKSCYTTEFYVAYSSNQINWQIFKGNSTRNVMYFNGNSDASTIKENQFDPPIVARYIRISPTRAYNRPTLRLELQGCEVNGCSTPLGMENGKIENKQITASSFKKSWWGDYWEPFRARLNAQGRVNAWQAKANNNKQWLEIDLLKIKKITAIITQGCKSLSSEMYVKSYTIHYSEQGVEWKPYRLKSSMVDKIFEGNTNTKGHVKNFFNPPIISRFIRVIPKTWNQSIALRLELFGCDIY

activated protein C (APC)
inactivation of factor Va activity by APC (factor Va activity over time after adding 1.9 nM APC): the replacement of Arg-506 by Gln only prevents the inactivation of the Xa-activated form of factor V by APC
